Measured values as given in patent US20250340623A1 (AC IMMUNE, published 2025).
Changes are numbered by the printed parent chain. Names may count otherwise. Where no end group is shown, it is not given here. The star is where a group is joined. Biotin = O=C1N[C@H]2[C@H](CS[C@H]2CCCCC(=O)*)N1; Ahx = NCCCCCC(=O)O

T1: 1-14aa
T1 construct: also called alpha-synuclein peptide 1-14
T1 peptide: MDVFMKGLSKAKEG-biotin

T2: 91-105aa
T2 peptide: {Biotin-Ahx}-ATGFVKKDQLGKNEE

T3: 82-96aa
T3 construct: also called alpha-synuclein peptide 82-96
T3 peptide: {Biotin-Ahx}-VEGAGSIAAATGFVK

T4: 46-60aa
T4 construct: also called alpha-synuclein peptide 46-60
T4 peptide: {Biotin-Ahx}-EGVVHGVATVAEKTK

T5: 118-132aa
T5 peptide: {Biotin-Ahx}-VDPDNEAYEMPSEEG

T6: 10-24aa
T6 construct: also called alpha-synuclein peptide 10-24
T6 peptide: {Biotin-Ahx}-KAKEGVVAAAEKTKQ

T7: 127-140aa
T7 peptide: {Biotin-Ahx}-MPSEEGYQDYEPEA

T8: 1-15aa
T8 construct: also called alpha-synuclein peptide 1-15
T8 peptide: {Biotin-Ahx}-MDVFMKGLSKAKEGV

T9: 64-78aa
T9 construct: also called alpha-synuclein peptide 64-78
T9 peptide: {Biotin-Ahx}-TNVGGAVVTGVTAVA

B1: ACI-7079-2603C1-Ab3 (antibody, V domains shown)
VH: QVQLQQPGADLVKPGASVKLSCKASGYTFTSYWMQWTKQRPGQGLEWIGEIDPSDSYANYNQKFKGKATLTVDKYSSTAYMQLNSLTSEDSAVYYCALYDGPSYWGQGTLVTVS
VL: ENVLTQSPAIMSASPGEKVTMTCSAGSSVSYMHWFQQKSSTSPKLWIYDTSKLPSGVPGRFSGSGSGNSYSLTISSMEAEDVATYYCFQGSGYPYTFGGGTKLEIK
notes: mouse hybridoma mAb; VH/VL only; also called 2603C1H6
B2: ACI-7079-2606A6-Ab2 (antibody, V domains shown)
VH: QVQLQQSGPELVKPGASVKISCKASGFAFSSSWMNWVKQRPGKGLEWVGRIFPGDGDTNYDRKFKDKATLTADKSSSTAYMQLSSLTSEDSAVYFCARWTGGYDWFAYWGQGTLVTVSA
VL: DIVLTQSPASLAVSLGQRATISCRASQSVSTSNYNYLHWYQQKPGQPPKLLITYASNLESGVPARFSGSGSGTDFTLNIHPVEEGDTATYYCQHSWEIPLTFGAGTKLELK
notes: mouse hybridoma mAb; VH/VL only; also called 2606A6D5
B3: ACI-8032-6313G2-Ab1 (antibody, V domains shown)
VH: EVQLQQSGPELVKPGASVKISCKASGYTFTDYYMNWVKQSHGKSLEWIGDIDPNNGVTSYSQKFKGKATLTVDKSSSTAYMELRSLTSEDSAVYYCARTGYYGTSLYYAMDYWGQGTSVTVSS
VL: DIVMSQSPSSLAVSAGEKVTMNCKSSQSLLNSRTRKNYLAWYQQKPGQSPKLLIYWASTRESGVPDRFIGSGSGTGFTLTISSVQAEDLAVYYCKQSYDLWTFGGGTKLEIK
notes: mouse hybridoma mAb; VH/VL only; also called 6313G2A10
B4: ACI-7067-1206E5-Ab1 (antibody, V domains shown)
VH: QVQLQQSGPELVKPGASVKMSCKASGYTFTDYVISWVKQGTGQGLEWIGEIYPGNDSTYYNEKFKGKATLTADKSSNTAYMQLSSLTSEDSAVYFCAREGVSNGYLYLSMDYWGQGTSVTVSS
VL: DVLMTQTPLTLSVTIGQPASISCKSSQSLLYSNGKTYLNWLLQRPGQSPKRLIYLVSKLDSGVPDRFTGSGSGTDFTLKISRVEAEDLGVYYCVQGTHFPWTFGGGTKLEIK
notes: mouse hybridoma mAb; VH/VL only; also called 1206E5D2
B5: ACI-7079-2501B11-Ab3 (antibody, V domains shown)
VH: QVQLQQSGPELVKPGASVKISCKASGYAFSSFWMNWMKQRPGKGLEWIGRIYPGDGDAHYNGEFKGRATLTADKSSSTAYMQLSSLTSEDSAVYFCARKGDFYGSNYDYWGQGTTLTVSS
VL: QAVVTQESALTTSPGETVTLTCRSSTGAVTTSNYANWVQEKPDHLFTGLIGGTNNRAPGVPARFSGSLIGDKAALTITGAQTEDEAIYFCALWYSNHLVFGGGTRLTVL
notes: mouse hybridoma mAb; VH/VL only; also called 2501B11C7
B6: ACI-7067-4813-R4A-G7-rec1 (antibody, mouse IgG2a, V domains shown)
VH: EVQLEESGGGLVHPKGSLKLSCAASGFTFNSYAMHWVRQAPGKGLEWVARIRSKRSNYATYYADSVKDRFTISRDDSQSMVYLEMNNLEAEDTATYYCVRGGREAMDFWGQGTSVTVSS
VL: B5 VL with L98W, R105K
notes: from phage display of immunised mice; positive clones expressed recombinantly as murine IgG2a; VH/VL only; also called ACI-7067-R4A-G7-Ab-1
B7: ACI-7067-1107G5-Ab2 (antibody, V domains shown)
VH: QVQLQQPGTELVKPGASVKLSCKASGYTFTKYWMHWVKQRPGQGLEWIGNINPNNGDTNYNEKFKSKATLTVDKSSSTAYMQLSSLTSEDSAVYYCAIAMDYWGQGTSVTVSS
VL: DIQMTQSPSSLSAFLGERVSLTCRASQDIGNNLNWFQQEPDGTIKRLIYATSSLDSGVPKRFSGSRSGSEYSLTISSLESEDFVDYYCLQFGSSPLTFGAGTKLELK
notes: mouse hybridoma mAb; VH/VL only; also called 1107G5B6
B8: ACI-7067-1111B12-Ab2 (antibody, V domains shown)
VH: B7 VH with Q5L, E10A, K13M, K31T, N54I, D57G, T58S, T69S, A97V
VL: B7 VL with F14S, N31I, N32S, S65N, E70D, V84A, G92A
notes: mouse hybridoma mAb; VH/VL only; also called 1111B12H10

Legend:
[1] = biological target: T1, 1-14aa; experiment: indirect ELISA on biotinylated peptide, supernatant 1/100
Method: (§1) Serum-free supernatants were harvested from stable hybridomas. The supernatants containing antibodies of interest were then screened by an indirect ELISA assay to determine epitopes. Epitopes were first determined using a library of 15-mer peptides covering the entire sequence of human alpha-synuclein protein, spanning amino acids (aa) 1-140 with 9aa offset and […] overlap. […] Briefly, streptavidin-coated ELISA plates were blocked overnight at 4° C. […] Plates were washed with PBS/0.05% Tween®20 and then incubated with the hybridoma supernatants at 1/100 dilution for 1 hour at 25° C.

[2] = biological target: T2, 91-105aa; experiment: indirect ELISA on biotinylated 15-mer peptide
Method: as §1

[3] = biological target: T3, 82-96aa; experiment: indirect ELISA on biotinylated 15-mer peptide
Method: as §1

[4] = biological target: T4, 46-60aa; experiment: indirect ELISA on biotinylated 15-mer peptide
Method: as §1

[5] = biological target: T5, 118-132aa; experiment: indirect ELISA on biotinylated 15-mer peptide
Method: as §1

[6] = biological target: T6, 10-24aa; experiment: indirect ELISA on biotinylated 15-mer peptide
Method: as §1

[7] = biological target: T7, 127-140aa; experiment: indirect ELISA on biotinylated 15-mer peptide
Method: as §1

[8] = biological target: T8, 1-15aa; experiment: indirect ELISA on biotinylated 15-mer peptide, supernatant 1/100
Method: as §1

[9] = biological target: T1, 1-14aa; experiment: indirect ELISA on biotinylated 15-mer peptide
Method: as §1

[10] = biological target: T8, 1-15aa; experiment: indirect ELISA on biotinylated 15-mer peptide
Method: as §1

[11] = biological target: T2, 91-105aa; experiment: indirect ELISA on biotinylated 15-mer peptide, supernatant 1/100
Method: as §1

[12] = biological target: T10, alpha-synuclein fibrils (UniProt P37840 1-140); experiment: SPR, captured mAb; alpha-synuclein fibrils
Method: Any non-covalently bound antibodies were removed by three successive regenerations of 10 mM Glycine pH 1.7 (GE Healthcare, 28-9950-84). Immobilization levels were evaluated following ethanolamine capping (Bound) and finally following regeneration (Final). Non-covalent immobilization of alpha-synuclein antibodies was performed using a target immobilization method of 2000 response units (RU). Antibodies were diluted in 10 mM sodium acetate pH 5.5 (GE Healthcare, BR-1003-52) to a final concentration of 5 μg/mL.
Binding affinity of alpha-synuclein antibodies to monomeric or fibrillar alpha-synuclein species was performed using a single-cycle kinetics method. The instrument was primed with 1×HBS-P+ buffer (10× stock from GE Healthcare, BR-1003-52 diluted in Milli-Q water). Injections of monomeric alpha-synuclein (aSyn) (Boston Biochem, SP-485), increasing in concentration from 0.62-50 nM prepared from serial 2-fold dilutions, were performed with contact times of 300 sec/injection at a flow rate of 30 μL/min. A dissociation phase of 900 sec followed the final 50 nM injection. Regeneration of the sensor to the goat anti-mouse antibody layer was achieved using 3 regenerations of 10 mM Glycine pH 1.7. […] Results obtained from single-cycle kinetics were evaluated by Biacore T200 evaluation software with 1:1 binding homogenous Langmuir model (with a global Rmax) with Cycle 5 as a blank subtraction. […]

[13] = biological target: T11, monomeric alpha-synuclein (UniProt P37840 1-140); experiment: SPR, captured mAb
Method: (§2) Non-covalent immobilization of alpha-synuclein antibodies was performed using a target immobilization method of 2000 response units (RU). Antibodies were diluted in 10 mM sodium acetate pH 5.5 (GE Healthcare, BR-1003-52) to a final concentration of 5 μg/mL.
(§3) Binding affinity of alpha-synuclein antibodies to monomeric or fibrillar alpha-synuclein species was performed using a single-cycle kinetics method. The instrument was primed with 1×HBS-P+ buffer (10× stock from GE Healthcare, BR-1003-52 diluted in Milli-Q water). Injections of monomeric alpha-synuclein (aSyn) (Boston Biochem, SP-485), increasing in concentration from 0.62-50 nM prepared from serial 2-fold dilutions, were performed with contact times of 300 sec/injection at a flow rate of 30 μL/min. A dissociation phase of 900 sec followed the final 50 nM injection. Regeneration of the sensor to the goat anti-mouse antibody layer was achieved using 3 regenerations of 10 mM Glycine pH 1.7. […] Regeneration of the sensor to the goat anti-mouse antibody layer was achieved using 3 regenerations of 10 mM Glycine pH 1.7. Results obtained from single-cycle kinetics were evaluated by Biacore T200 evaluation software with 1:1 binding homogenous Langmuir model (with a global Rmax) with Cycle 5 as a blank subtraction. The following kinetic parameters were obtained: on-rate (ka), off-rate (kd), affinity constant (KD, ratio of kd by ka), maximum response (Rmax), and goodness of fit (Chi2).
(§4) Non-covalent capture of the alpha-synuclein antibodies was performed in three separate runs.

[14] = biological target: T10, alpha-synuclein fibrils; experiment: SPR, captured mAb
Method: as §2, §3, §4

[15] = biological target: T11, monomeric alpha-synuclein; experiment: SPR, captured mAb; alpha-synuclein monomers
Method: as §2
Binding affinity of alpha-synuclein antibodies to monomeric or fibrillar alpha-synuclein species was performed using a single-cycle kinetics method. The instrument was primed with 1×HBS-P+ buffer (10× stock from GE Healthcare, BR-1003-52 diluted in Milli-Q water). Injections of monomeric alpha-synuclein (aSyn) (Boston Biochem, SP-485), increasing in concentration from 0.62-50 nM prepared from serial 2-fold dilutions, were performed with contact times of 300 sec/injection at a flow rate of 30 μL/min. A dissociation phase of 900 sec followed the final 50 nM injection. Regeneration of the sensor to the goat anti-mouse antibody layer was achieved using 3 regenerations of 10 mM Glycine pH 1.7. […] Regeneration of the sensor to the goat anti-mouse antibody layer was achieved using 3 regenerations of 10 mM Glycine pH 1.7. Results obtained from single-cycle kinetics were evaluated by Biacore T200 evaluation software with 1:1 binding homogenous Langmuir model (with a global Rmax) with Cycle 5 as a blank subtraction. […]

[16] = biological target: T9, 64-78aa; experiment: indirect ELISA on biotinylated 15-mer peptide
Method: as §1

[17] = biological target: 28-42aa; experiment: indirect ELISA on biotinylated 15-mer peptide, supernatant 1/100
Method: as §1

[18] = biological target: human full-length alpha-synuclein (human, UniProt P37840 1-140); experiment: indirect ELISA on coated full-length alpha-synuclein, O.D. 405 nm
Method: Antibody binding to human full-length alpha-synuclein was determined using an indirect ELISA. Full-length alpha-synuclein was diluted in carbonate/bicarbonate buffer pH 9.6 (Sigma, C3041) to a final concentration of 2.5pg/ml and coated onto ELISA plates overnight at 4° C. After washing with PBS/0.05% Polyethylene glycol sorbitan monolaurate (Tween®20) and blocking for 1 hour at 37° C. (PBS/0.05% Tween®20/1% BSA), plates were incubated for 2 hours at 37° C. with three-fold dilution series of alpha-synuclein antibodies from 1 μg/mL to 0.0005 μg/mL using PBS/0.05% Tween®20/1% BSA as diluent.

[19] = biological target: T4, 46-60aa; experiment: indirect ELISA on biotinylated 15-mer peptide, supernatant 1/100
Method: as §1

Row | Binder | binding result [3] | binding result [4] | binding result [5] | binding result [6] | binding result [7] | koff [13] [s⁻¹] | kon [13] [M⁻¹ s⁻¹] | koff [14] [s⁻¹] | kon [14] [M⁻¹ s⁻¹] | binding result [16] | further results
1 | B1 | no binding (tested: supernatant 1/100) | no binding (tested: supernatant 1/100) | no binding (tested: supernatant 1/100) | no binding (tested: supernatant 1/100) | no binding (tested: supernatant 1/100) |  |  |  |  |  | binding result [1]: binds; binding result [2]: no binding (tested: supernatant 1/100); binding result [8]: binds
2 | B2 | no binding (tested: supernatant 1/100) | no binding (tested: supernatant 1/100) | no binding (tested: supernatant 1/100) | no binding (tested: supernatant 1/100) | no binding (tested: supernatant 1/100) |  |  |  |  |  | binding result [9]: no binding (tested: supernatant 1/100); binding result [10]: no binding (tested: supernatant 1/100); binding result [11]: binds
3 | B3 |  |  |  |  |  | 0.000541 | 33500 | 0.000829 | 338 |  | Kd [12]: 2460 nM; Kd [15]: 16.2 nM
4 | B4 | no binding (tested: supernatant 1/100) | no binding (tested: supernatant 1/100) | no binding (tested: supernatant 1/100) |  | no binding (tested: supernatant 1/100) | 6.36e-05 | 165000 | 0.000405 | 57300 | no binding (tested: supernatant 1/100) | Kd [13]: 0.4 nM; Kd [14]: 8.3 nM; binding result [17]: binds; EC50 (read off the curve) [18]: ~0.04 µg/mL
5 | B5 | no binding (tested: supernatant 1/100) | no binding (tested: supernatant 1/100) | no binding (tested: supernatant 1/100) | no binding (tested: supernatant 1/100) | no binding (tested: supernatant 1/100) |  |  |  |  |  | binding result [9]: no binding (tested: supernatant 1/100); binding result [10]: no binding (tested: supernatant 1/100); binding result [11]: binds
6 | B6 |  |  |  |  |  | 0.0737 | 735000 | 1.34e-07 | 4760 |  | Kd [12]: 0.041 nM; Kd [15]: 97 nM
7 | B7 | no binding (tested: supernatant 1/100) |  | no binding (tested: supernatant 1/100) |  | no binding (tested: supernatant 1/100) |  |  |  |  | no binding (tested: supernatant 1/100) | binding result [19]: binds
8 | B8 | no binding (tested: supernatant 1/100) |  | no binding (tested: supernatant 1/100) |  | no binding (tested: supernatant 1/100) |  |  |  |  | no binding (tested: supernatant 1/100) | binding result [19]: binds
